# Data reported in the DeepSol protein solubility set.
# Experiment: soluble on expression in E. coli; label from the status in PepcDB or PDB records
row,Sequence,soluble on expression in E. coli
1,MASYLPSEWQDDLKMNGLMSVMKERHVNKVDYDRKLRFWTDAIYGSCIGEKNATFNLLELKKRFRRNDRVPASLDVILDHLKKKGDVITIGEWRDRHSSWVGWGFSKTKGWMFGASSDSEQLLHLPTIKKLGQEILDIYNEELRSEIDCTGEVVTYNEMFDRASNIISKIETFDIVLEHLNDIGELTVGTTRNGEKVLKFKDNGSEDPVKFTEADASVVDIRKAMNKLDREIQQLEQKVKKYDEQCRACLRTGDKGRAQNFLRQRKRAEKDIADKDVQYQKLLTMLHQISSAKNNKDVLQAYKSGTAAFKATLARQGLSPDKIHETMDDVVNSMDEYKEIEEAISSPFVNANGFNDADLEQELEDLISDNKKNESVHLPEAPTNRFGLFDKEVTPEEDQLEKRLARLRQAI,not soluble
2,MATALYTANDFILISLPQNAQPVTAPGSKTDSWFNETLIGGRAFVSDFKIPEFKIGSLDTLIVESEELSKVDNQIGASIGKIIEILQGLNETSTNAYRTLPINNMPVPEYLENFQWQTRKFKLDKSIKDLITLISNESSQLDADVRATYANYNSAKTNLAAAERKKTGDLSVRSLHDIVKPEDFVLNSEHLTTVLVAVPKSLKSDFEKSYETLSKNVVPASASVIAEDAEYVLFNVHLFKKNVQEFTTAAREKKFIPREFNYSEELIDQLKKEHDSAASLEQSLRVQLVRLAKTAYVDVFINWFHIKALRVYVESVLRYGLPPHFNIKIIAVPPKNLSKCKSELIDAFGFLGGNAFMKDKKGKINKQDTSLHQYASLVDTEYEPFVMYIINL,soluble
3,MATDTSSPKHEPIIIAVEPYGGSVRDHSPLLPLVYWDDAAVTRGDGVFETILFRHGRACNLERHAQRFRESAVLLDLPEPRLDHWVHATSMAVEKWFQQSESDAKCVWTYTRGRASTGHPSAWLTITAVPDCVIEQREQGVRVMTTPRGYHIDTSNSVPWVVIGAKTLNYASNMAALRWAKKEGFDDVIFTEQDRILEGATSTVVTFRGNKIRSPFPGGDVLPGTTQAALFDYATNLGWNCKLKDMDEVYLTEKADSVWLISSVRGATRVRRINDTKLPRPDNESEIRELIEAALTAL,not soluble
4,MATEQHLRQQLAAAYRLAALFGWEDTLYTHFSVRLPGDGEPRFLINPFGMMFDEVTASNLIVVDMQGKVVAGDAPANSAGFTIHSAVHMAREDAHCVIHTHTLPGMAVAACEDGLLQLNQISTEFYQRVGYHPYEGVAFDLDERARIQRSLGNNIAMILQSHGLLSVGRTVADAFYIMYYLNRACEIQMATAQLAALSPIHTIAPHLSQHACEQLMGVEHERQQVWQAWLRRLDRLDTSYKD,not soluble
5,MATFGFLSAPLKSTNEVDLVKPLTSYIDNVYNTSDNNRSDVAEAVQELNKLRSKACCQPLDKHQSALDVLTRYYDQLVAIENKIIISATQNPVVFKWKDAFDKGSLFSSRASLSLSDGSFERAAVLFNIGSLMSQIGAAQQFHTDDEIKVSAKLFQQSAGVFARLRDVVLGMVQQEPTPDLMPDTLAALSALMTAQAQEAIYIKGHKDKMKATSMVKISAQVAEFYSEAQKMMSKDIVRGLWDKDWSAIVSGKNLAYQALAQYHQSEVCGEARQIGEQLSRLAESLKLFDTAQKYLPRDITGIWDIYPSVSKAHAAAKKDNDFIYHEKVSDFRTLPTLPKAVLAKPTPMQTPMTPSFRDMFAVLVPVQVHNAMQSYDARKAELVNMETVRMREATQLMNGVLASLNLPAALDDVTSTETLPESLKLKSAKLKQNGGSSEIMRLFSELPTLYQRNEDILTETSRILNEEKESDDTMRKQLGTKWTRMSSEQLTGPLVTEIGKYRGILHTASNADKMVKEKFESHRQGIELLSKNESELRSSIPGQTAHATGETDTVRQLRQFMSQWNEVTTDRELLEKELKNTNCDIANDFLKAMAENQLINEEHISKEKIAQIFGDLKRRVQSSLDTQETLMNQIQAANNTFTGEKTGSSTGAERERILKMLAQASDAYVELKANLEEGTKFYNDLTPILVRLQQKVSDFAFARQTEKEDLMRQLQLSIVSGTNAAQSPANAPPRPPPPRPAAPSVESPIPPPRTQQSMQATPGAPPQYNPYQQQQQPQMQQFQQHPGYYQQPMPYGQPQPMFQPQYQPTFAAPYPTFPGAFPSYQQQWPQQQQQGGFPPNPQFGQQNQQQGGGGGANPFQ,not soluble
6,MATITDIAKVANVSISTVSRVLNYDPNLSVTEETKRKIFEAAETLNYTKYKTKNKNKQQEQLTPNLSVQTAPQEPSIAVVQWRSDDEELTDIYYMSIRLGAEKRAEELGYNILKVSQLEQHNLQGIDGILAIGKFTQKTLQELQQLHPNLCVIGSNFPLEEFDSVNTDFYQATEIALTHLLELGHEKIAFIGAEESENMYGFRRYKTPTTNAYLDIMQHYHLFNEDYFILKENGMLDVKTGEQLTEEALEKWGNDLPTAILAYNDAFAIGVIHTLAAHGIKVPEEISVMGINDISISQYVSPPLSSVHAFTEEMGETGINLLHKRIQMPSIPRRVLLNTELVVRQSTTSPRQK,soluble
7,MATKEFYFAIIGHCDQPIFEMDFPVGEKKTKESEGTRHLNHYIGHAALDIVDEHALTTSQMYLKMVDKFNEWYVSAFVTASRIRFIMLHTHRADEGIKQFFQEMYETYIKHAMNPFYEIDDVIESPAFEQKATLYGRKYLS,not soluble
8,MATNESIMTLPLASKFKAEARAMADRGLSTYEAVYQLNKLEEQDKPRADAIMALDESGDYQPLLRAMANVPCIDVGTAKSILSMTIEQERPKVAPELTAAFENFMDMHSPQAVSAGMAYDGRNQGDDGDIDRILKTI,soluble
9,MATPVPLVFNAPKRGMPPTHFADLNDEARIEALKELGLPKFRLNQIARHYYGRLEADPLTMTDLPEGARQEVKDALFPTLMSPLRVVETDDDTTQKTLWKLHDGTLLESVLMRYSDRSTLCISSQAGCGMACPFCATGQGGLDRNLSIGEIVDQVRNAAATMQSEGGRLSNIVFMGMGEPLANYKRVVSAVRQITQPSPAGFGISQRSVTVSTVGLAPAIRKLADEEMSVTLAVSLHTPDDELRDTLVPVNNRWPVAEVLDAARYYADKSGRRVSIEYALIRDVNDQDWRADMLGEKLHKALGSRVHVNLIPLNPTPGSKWDAAPKARQDEFVRRVIAKGVPCTVRDTKGQEIAAACGQLAAEESA,not soluble
10,MATSFYTGGGEDGDGFNPRVHARIAEREGFQLASGSEDPRTLFVANLDPAITDEFLATLFNQIGAVMKAKIIFEGLNDPYAFVEFSDHNQATLALQSHNGRELLEKEMHVTWAFEPREPGENRSKPETSRHFHVFVGDLCSEIDSTKLREAFVKFGEVSEAKIIRDNNTNKGKGYGFVSYPRREDAERAIDEMNGAWLGRRTIRTNWATRKPDEDGERGGDRGDRRGGGGGGRDRYHNQSEKTYDEIFNQAAADNTSVYVGNIANLGEDEIRRAFDRFGPINEVRTFKIQGYAFVKFETKESAARAIVQMNNADIGGQIVRCSWGKSGDSGKPSERGSGGGGGSGNYGYGYGNSGGGGGSGGPGNSQFSNFNQRPPPSGNGGSGGGSGGQNNQYWQYYSQYYNNPHLMQQWNNYWQKDGPPPPPAAAASSTGGN,not soluble
11,MATYRKSRAFAPEGFFECEGRGLEWLGAAHAQGGPRVVQVYGWGKDYLDIERVGSASPTPQAARAFGAALARMHDAGAKYFGSAPDGYNGTCYFGPLQDPVKMDTGEWTDPISYFADGRLRPMVNLGVKRGELDKRDVELTERVIEALPDLMGRAAADKPARIHGDLWSGNVMWTADSGQSEAVLIDPAAHGGHREEDLAMLHLFGMSYLSEITEGYQSVHPLKAGWQERITLWQLYPIAGHCVFFGGGYVNEYRSMCRSLLKLEHHHHHH,not soluble
12,MAVAGFSPIKLIWKNSRHDLVLAGQAGLSYKNNNYLYMDVDNKHAMARTYANGKFSLGARMAYEYRISNTLGAGATATYEFGGEVFAALATFNVHF,not soluble
13,MAVELNQLRDQIDEVDKQMVELLARRLALVEQVGQVKSRYGLPIYAPDREAAMLASRRAEAESKGVPPQLIEDILRRTMRESYASEKDSGFKCLNPELRSVVIVGGNGQLGRLFGRMFKLSGYQVKVLGSQDWDKADELLSDAGLVVVTVPIHLTLGVIEKLRQLPDDCILCDLTSIKAKPLAAMLQVHKGPVVGLHPMFGPDVPSLAKQVIVYCDGRGNEHYQWLLQQFAIWGASLCQIDADEHDRGMTLIQALRHFTSFAYGLHLTKENPNLAQLLKLSSPIYRLELAMVGRLFGQDPHLYGDIILSSPENIEMIQRFHRCLSDAVELVSAGDKASFVAQFERVSQWFGDYSQQFMHESQNLLKQANDAIHRG,not soluble
14,MAVRFIREDGDEILRKVSKKVDVIDERIKTLLDDMAETMYAANGVGLAAPQVGVLKRVVVIDVGDGLMELINPEIVEQEGEQIDIEGCLSIPGVAGEVKRPARVVVEALNREGEKITVEGKELLAVALCHEIDHLDGILFTDKVIRFIDEDEMERRRENKRRNKIRQNKG,not soluble
15,MAVVFKKTEGLQDTQTHYCPGCTHGIIHRLVGEVLEELGVLGDAVGVVPVGCSVLGYKYFNCDTQEAAHGRAPAAATGIKRVHPENTVFTYQGDGDLASIGTAEIVHAAARGEKITTIFVNNTTYGMTGGQMAPTTLVGQRATTAQSGRNAETQGYPIRVSEMLATLTGAVFVERVAVDTPAHVRQAKKAIKKAFQVQQAGLGFGIVEVLSTCPTNWGLAPNDALQWLRDNMIPYYPLGNFKNVEVEEVK,not soluble
16,MAVYLDFENHIKEIQNEIELALIRGDEDAKEILEKRLDKEVKSIYSNLTDFQKLQLARHPDRPYAMDYIDLILKDKYEVFGDRHYNDDKAIVCFVGKIDNVPVVVIGEEKGRGTKNKLLRNFGMPNPCGYRKALKMAKFAEKFNLPILMLVDTAGAYPGIGAEERGQSEAIAKNLQEFASLKVPTISVIIGEGGSGGALAIAVADKLAMMEYSIFSVISPEGCAAILWDDPSKTEVAIKAMKITPRDLKEAGLIDDIILEPSKGAHRDKFSAANTIKEYFLDALRTIQQDPHFLDNRYQKLMSLGSFVESMN,soluble
17,MAYCNPGLESRPNKRNALRRHVVTGIGMKIVIAPDSYKESLSASEVAQAIEKGFREIFPDAQYVSVPVADGGEGTVEAMIAATQGAERHAWVTGPLGEKVNASWGISGDGKTAFIEMAAASGLELVPAEKRDPLVTTSRGTGELILQALESGATNIIIGIGGSATNDGGAGMVQALGAKLCDANGNEIGFGGGSLNTLNDIDISGLDPRLKDCVIRVACDVTNPLVGDNGASRIFGPQKGASEAMIVELDNNLSHYAEVIKKALHVDVKDVPGAGAAGGMGAALMAFLGAELKSGIEIVTTALNLEEHIHDCTLVITGEGRIDSQSIHGKVPIGVANVAKKYHKPVIGIAGSLTDDVGVVHQHGIDAVFSVLTSIGTLDEAFRGAYDNICRASRNIAATLAIGMRNAG,soluble
18,MAYDGLFTKKMVESLQFLTTGRVHKINQPDNDTILMVVRQNRQNHQLLLSIHPNFSRLQLTTKKYDNPFNPPMFARVFRKHLEGGIIESIKQIGNDRRIEIDIKSKDEIGDTIYRTVILEIMGKHSNLILVDENRKIIEGFKHLTPNTNHYRTVMPGFNYEAPPTQHKINPYDITGAEVLKYIDFNAGNIAKQLLNQFEGFSPLITNEIVSRRQFMTSSTLPEAFDEVMAETKLPPTPIFHKNHETGKEDFYFIKLNQFNDDTVTYDSLNDLLDRFYDARGERERVKQ,soluble
19,MAYFALGLATATKNRDGKIIEAFFPTPILAPSDALVAALAPIAGYQEGNQALDITAAQSAQLAAVFAAHQQAASAAFADKAANAKQPLVLVILASDDKPQSVAEGYLKLQLISHRLVKPHGTVLDGIFGLLHNIAWTNEGPIDLPELAERQIEARLAGRVLTVDCVDKFPKMVDYVVPAGIRIADTSRVRLGAHVGEGTTVMHEGFINFNAGTTGVSMVEGRISAGVVVGNGSDIGGGASIMGTLSGGGKVVVSIGENSLLGANAGLGFPLGDRCTVESGLYVTAGTKVRTLDKDGNQVDIVKARDLAGVSDLLFRRNSLTGQIECLANKSAVELNSELHKNN,not soluble
